Target: the molecule itself
Assay: crystal structure; PaFabB C161A lacking the His-tag (9-23 mg/mL) in 20 mM Tris-HCl, 150 mM NaCl, 1 mM DTT, pH 7.4; sitting drop, 20°C; 0.2 M sodium iodide, 0.1 M Bis-Tris propane pH 7.5, PEG 3350, ethylene glycol; space group C 2 2 21, 2 protein molecules in the asymmetric unit; 1.3 Å

B1: Pseudomonas aeruginosa FabB C161A (3-oxoacyl-[acyl-carrier-protein] synthase 1), without His-tag (enzyme)
chain: MRRVVITGLGIVSCLGNDKDTVSANLRAGRPGIRFNPSYAEMGLRSHVSGSVDLNLEELIDRKVFRFMGDAAAYAYLAMEQAIKDSGLTPEQISNPRTGLIAGSGGASTLNQMEAIDTLREKGVKRIGPYRVTRTMGSTVSACLATPFQIKGVNYSISSAAATSAHCIGQAMEQIQLGKQDVVFAGGGEEEHWSQSCLFDAMGALSTQYNETPEKASRAYDAKRDGFVIAGGGGMVVVEELEHALKRGAKIYAEIVGYGATSDGYDMVAPSGEGAIRCMQQALATVDAPIDYLNTHGTSTPVGDVAEIRGVREVFGDKAPAISSTKSLSGHSLGAAGVHEAIYCLLMMEGGFIAGSANIDELDPEVADLPILRETRENAKLDTVMSNSFGFGGTNATLVLKRWQG
notes: FabB (3-oxoacyl-[acyl-carrier-protein] synthase 1) of P. aeruginosa PA14, ORF PA14_43690, with the point mutation C161A; gene synthesised and cloned NdeI/BamHI into pET-28a(+)-TEV; 808 protein residues modelled in the dimer; also called PaFabB C161A; cleaved PaFabB C161A; not shown: His6, N-terminal, cleaved
stoichiometry N: 2

Source: article PMC8804906, “Crystal structure of Pseudomonas aeruginosa FabB C161A, a template for structure-based design for new antibiotics” (F1000Research, 2021)
